Test results from article PMC3263374.

Molecular target: ApoE 130-149 (Homo sapiens) (UniProt P02649)
Assay: NMR
Settings: modification not given

Chain of ApoE 130-149 (Homo sapiens) (P02649 130-149): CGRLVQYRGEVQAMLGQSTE

| Kd [µM] | Substance |
| --- | --- |
| 405 | LDLR LA4 (in LA45), P01130 |
| 730 | LDLR LA5 (in LA45), P01130 |
